In patent publication US20210188971A1:

Biological target: TSHR on engineered CHO cells (UniProt P16473)
Experiment: flow cytometry on CHO cells engineered with TSHR, detected with anti-human IgG1 Fc-Alexa Fluor 488

- concentration at which fluorescence intensity peaked: 30 µg/mL
B1: M22 Fabs (control of Example 16) (Fab, V domains shown)
VH: QVQLVQSGAEVKKPGESLKISCRGSGYRFTSYWINWVRQLPGKGLEWMGRIDPTDSYTNYSPSFKGHVTVSADKSINTAYLQWSSLKASDTGMYYCARLEPGYSSTWSVNWGQGTLVTVSS
VL: LTVLTQPPSVSGAPRQRVTISCSGNSSNIGNNAVNWYQQLPGKAPKLLIYYDDQLPSGVSDRFSGSRSGTSASLAIRGLQSEDEADYYCTSWDDSLDSQLFGGGTRLTVL
